Laboratory results from patent US20120208867, “HMGB1 BINDING NUCLEIC ACID MOLECULE AND APPLICATIONS THEREOF” (published 2012).

B1: 2'F-CU-#06 (ssRNA)
RNA: GGGACGCUCACGUACGCUCAUACACUGCACGCUCCGCUUUGAACAUCAAUGGAGGCCCUGUCAGUGCCUGGACGUGCAGU
modifications: 2'-F on all C and U
B2: 2'F-U-#06 (ssRNA)
RNA: GGGACGCUCACGUACGCUCAUACACUGCACGCUCCGCUUUGAACAUCAAUGGAGGCCCUGUCAGUGCCUGGACGUGCAGU
modifications: 2'-F on all U
B3: 2'F-C-#06 (ssRNA)
RNA: GGGACGCUCACGUACGCUCAUACACUGCACGCUCCGCUUUGAACAUCAAUGGAGGCCCUGUCAGUGCCUGGACGUGCAGU
modifications: 2'-F on all C
B4: 2'F-CU-#80 (ssRNA)
RNA: GGGACGCUCACGUACGCUCACAUCUGAAUUUAAGCCACGUAGAACCAGGCCCUCCACGCGUCAGUGCCUGGACGUGCAGU
modifications: 2'-F on all C and U
B5: 2'F-U-#80 (ssRNA)
RNA: GGGACGCUCACGUACGCUCACAUCUGAAUUUAAGCCACGUAGAACCAGGCCCUCCACGCGUCAGUGCCUGGACGUGCAGU
modifications: 2'-F on all U
B6: 2'F-C-#80 (ssRNA)
RNA: GGGACGCUCACGUACGCUCACAUCUGAAUUUAAGCCACGUAGAACCAGGCCCUCCACGCGUCAGUGCCUGGACGUGCAGU
modifications: 2'-F on all C

Target: T1, His-tagged HMGB1 (UniProt P09429 P09429:1-215)
Test: SPR; 200 nM protein, 150 mM NaCl; above unmodified 40N
Conditions: tags: N-terminal His-tag
Method: (§1) First, a sensor chip (trade name: Sensor Chip SA, manufactured by GE Heathcare) specially made for a BIACORE was set on the aforementioned BLACORE (registered trademark) X. Biotinylate deoxythymidine (5 μmol/L) was injected into the flow cell 2 of the aforementioned sensor chip using a running buffer and subjected to binding until the signal intensity (RU: resonance unit) reached about 1000 RU. For the aforementioned biotinylated deoxythymidine, 20-base-long deoxythymidine in which the 5′ end was biotinylated was used. Then, 10 μg/mL of an RNA aptamer was injected at a flow rate of 20 μL/min for 1 min into the aforementioned flow cells 1 and 2 of the aforementioned chip using a running buffer and subjected to binding until the signal intensity reached about 1000 RU. Next, 675 nmol/L of the aforementioned His-tag-added HMGB1 was injected at a flow rate of 20 μL/min for 30 sec using the aforementioned running buffer, and under the same conditions the aforementioned running buffer was allowed to flow continuously for washing. Simultaneously with the injection of the aforementioned His-tag-added HMGB1 and washing with the aforementioned running buffer, signal intensity was measured. The aforementioned running buffer was composed of 20 mmol/L of HEPES, 500 mmol/L of NaCl, 0.1 mmol/L of MgCl₂, and 0.1% Triton X-100 (registered trademark), with the pH thereof being 7.2. As a blocking agent for suppressing nonspecific binding, tRNA was used in a concentration of 1 mg/mL. In a comparative example, signal intensity was measured in the same manner except that the aforementioned comparative example RNA was used in place of the aforementioned example RNA aptamers.
An analysis of ability to bind to the aforementioned His-tag-added HMGB1 (manufactured by Sigma) was carried out in the same manner as in (2) above of the aforementioned Example 1 except that the aforementioned fluorinated RNA aptamers were used, the concentration of the aforementioned His-tag-added HMGB1 was 200 nmol/L, the concentration of NaCl in the aforementioned running buffer was 150 mmol/L, and the injection time of the aforementioned His-tag-added HMGB1 was 60 seconds. Also, an analysis was carried out in the same manner on unmodified R8c6_{—}1 that was not fluorinated.

T1 sequence (P09429 whole entry, one chain of several): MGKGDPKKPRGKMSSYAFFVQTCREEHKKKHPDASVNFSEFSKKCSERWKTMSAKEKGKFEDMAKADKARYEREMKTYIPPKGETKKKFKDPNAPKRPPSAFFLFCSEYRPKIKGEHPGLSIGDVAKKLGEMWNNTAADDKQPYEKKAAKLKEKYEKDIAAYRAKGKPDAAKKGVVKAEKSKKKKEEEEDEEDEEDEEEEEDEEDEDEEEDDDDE

Question: Does B1 bind?
Answer: binds

Question: Does B2 bind?
Answer: binds

Question: Does B3 bind?
Answer: binds

Question: Does B4 bind?
Answer: binds

Question: Does B5 bind?
Answer: binds

Question: Does B6 bind?
Answer: binds

Target: T1, His-tagged HMGB1
Test: SPR; 150 nM protein
Conditions: tags: N-terminal His-tag
Method: (§2) The ability of each of the aforementioned RNA aptamers to bind to HMGB1 in which His-tag was added to the N-terminus (His-tag-added HMGB1) was examined. For the analysis of the aforementioned binding ability, a BIACORE (registered trademark) X (manufactured by GE Healthcare) was used according to its instruction manual.
as §1, with “675 nmol/L of the aforementioned His-tag-added HMGB1 was injected at a flow rate of 20 μL/min” left out

Question: Does GGGUAAGACACGUAGCACCGUGUGCCGGACGUGCAGU (ssRNA, 2'-F on all C and U) [2'F-R8c6_1-25-S6A2] bind?
Answer: binds

Question: Does GGGAGUAAGACACGUAGCACCAGUGCCUGGACGUGCAGU (ssRNA) [R8c6_1-23-S8] bind?
Answer: binds

Question: Does GGGAGUAAGACACGUAGCACCAGUGCCUGGACGUGCAGU (ssRNA, 2'-F on all C and U) [2'F-R8c6_1-23-S8] bind?
Answer: binds

Question: Does GGGAAGACACGUAGCACCAGUGUGCCUGGACGUGCAGU (ssRNA, 2'-F on all C and U) [2'F-R8c6_1-26-S6] bind?
Answer: binds

Question: Does GGGUAAGCACGUAGCACCAGUGUGCCUGGACGUGCAGU (ssRNA, 2'-F on all C and U) [2'F-R8c6_1-25-S6A] bind?
Answer: binds

Question: Does GGGAGUAAGACACGUAGCACCAGUGUGCCUGGACGUGCAGU (ssRNA) [R8c6_1-23-S6] bind?
Answer: binds

Question: Does GGGAGUAAGACACGUAGCACCAGUGUGCCUGGACGUGCAGU (ssRNA, 2'-F on all C and U) [2'F-R8c6_1-23-S6] bind?
Answer: binds

Question: Does GGGCAGUAAGACACGUAGCACCAGUGUGCCUGGACGUGCAGU (ssRNA) [R8c6_1-22-S6] bind?
Answer: binds

Question: Does GGGCAGUAAGACACGUAGCACCAGUGUGCCUGGACGUGCAGU (ssRNA, 2'-F on all C and U) [2'F-R8c6_1-22-S6] bind?
Answer: binds

Question: Does GGGUAAGACACGUAGCACCAGUGUGCCUGGAGUGCAGU (ssRNA, 2'-F on all C and U) [2'F-R8c6_1-25-S6C2] bind?
Answer: binds

Question: Does GGGACAGUAAGACACGUAGCACCAGUGUGCCUGGACGUGCAGU (ssRNA) [R8c6_1-21-S6] bind?
Answer: binds

Question: Does GGGGUAAGACACGUAGCACCAGUGUGCCUGGACGUGCAGU (ssRNA) [R8c6_1-24-S6] bind?
Answer: binds

Question: Does GGGGUAAGACACGUAGCACCAGUGUGCCUGGACGUGCAGU (ssRNA, 2'-F on all C and U) [2'F-R8c6_1-24-S6] bind?
Answer: binds

Question: Does GGGAGACACGUAGCACCAGUGUGCCUGGACGUGCAGU (ssRNA, 2'-F on all C and U) [2'F-R8c6_1-27-S6] bind?
Answer: binds

Question: Does GGGUAAGACACGUAGAACCAGUGACUGGAAGUGCAGU (ssRNA, 2'-F on all C and U) [2'F-R8c6_1-25-S8CA] bind?
Answer: binds

Question: Does GGGUAAGACACGUAGAACCAGUGACUGGAAGUGCAGU (ssRNA) [R8c6_1-25-S8CA] bind?
Answer: binds

Question: Does GGGUAAGACACGUAGCACCAGUGCCUGGACGUGCAGU (ssRNA, 2'-F on all C and U) [2'F-R8c6_1-25-S8] bind?
Answer: binds

Question: Does GGGACAGUAAGACACGUAGCACCAGUGCCUGGACGUGCAGU (ssRNA) [R8c6_1-21-S8] bind?
Answer: binds

Question: Does GGGUAAGACACGUAGACCAGUGUGCCUGGACGUGCAGU (ssRNA, 2'-F on all C and U) [2'F-R8c6_1-25-S6C] bind?
Answer: binds

Question: Does GGGGUAAGACACGUAGCACCAGUGCCUGGACGUGCAGU (ssRNA) [R8c6_1-24-S8] bind?
Answer: binds

Question: Does GGGGUAAGACACGUAGCACCAGUGCCUGGACGUGCAGU (ssRNA, 2'-F on all C and U) [2'F-R8c6_1-24-S8] bind?
Answer: binds

Question: Does GGGUAAGACACGUAGCACCAGUGUGCCUGGACGUGCAGU (ssRNA, 2'-F on all C and U) [2'F-R8c6_1-25-S6] bind?
Answer: binds

Question: Does GGGCAGUAAGACACGUAGCACCAGUGCCUGGACGUGCAGU (ssRNA) [R8c6_1-22-S8] bind?
Answer: binds

Question: Does GGGCAGUAAGACACGUAGCACCAGUGCCUGGACGUGCAGU (ssRNA, 2'-F on all C and U) [2'F-R8c6_1-22-S8] bind?
Answer: binds

Target: T1, His-tagged HMGB1
Test: SPR; 160 nM protein
Conditions: tags: N-terminal His-tag
Method: as §2
as §1, with “675 nmol/L of the aforementioned His-tag-added HMGB1 was injected at a flow rate of 20 μL/min” left out

Question: Does GGGUAAGACACGUAGCACCGUGUGCCGGACGUGCAGU (ssRNA) [R8c6_1-25-S6A2] bind?
Answer: binds

Question: Does GGGUAAGCACGUAGCACCAGUGUGCCUGGACGUGCAGU (ssRNA) [R8c6_1-25-S6A] bind?
Answer: binds

Question: Does GGGAAGACACGUAGCACCAGUGUGCCUGGACGUGCAGU (ssRNA) [R8c6_1-26-S6] bind?
Answer: binds

Question: Does GGGUAAGACACGUAGCACCAGUGUGCCUGGACGUGCGU (ssRNA) [R8c6_1-25-S6A3] bind?
Answer: binds

Question: Does GGGUAAGACACGUAGCACCAGUGUGCCUGGAGUGCAGU (ssRNA) [R8c6_1-25-S6C2] bind?
Answer: binds

Question: Does GGGAGACACGUAGCACCAGUGUGCCUGGACGUGCAGU (ssRNA) [R8c6_1-27-S6] bind?
Answer: binds

Question: Does GGGUAAGACACGUAGCACCAGUGCCUGGACGUGCAGU (ssRNA) [R8c6_1-25-S8] bind?
Answer: binds

Question: Does GGGUAAGACACGUAGACCAGUGUGCCUGGACGUGCAGU (ssRNA) [R8c6_1-25-S6C] bind?
Answer: binds

Question: Does GGGUAAGACACGUAGCACCAGUGUGCCUGGACGUGCAGU (ssRNA) [R8c6_1-25-S6] bind?
Answer: binds
